Here are results for twelve molecules from US20250243263A1 (VOYAGER THERAPEUTICS, published 2025).

Changes are numbered by the printed parent chain. Where no end group is shown, it is not given here. [ ]: non-standard residue; d: D form. pT = C[C@@H](OP(=O)(O)O)[C@H](N)C(=O)O; pS = N[C@@H](COP(=O)(O)O)C(=O)O

T1: AC04 peptide (human, phosphothreonine at T212 and T217 of tau (peptide positions 4, 9))
T1 construct: Tau-derived peptide with an N-terminal Cys
T1 peptide: CSRTPSLPTPPTREPK

T2: wtTau C2 (human)
T2 peptide: PTREPKKVA

T3: tPeptide 5 (204-222) (human)
T3 peptide: GTPGSRSR[pT]P[pS]LP[pT]PPTRE

T4: AT8 peptide (amino acids 195-215 of tau) (human, phospho-peptide, phosphorylated sites not stated in the example; immobilized on streptavidin tips)
T4 peptide: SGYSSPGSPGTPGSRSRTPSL

B1: VY007 (antibody, V domains shown)
VH: EVQLVESGGGLVQPGGSLRLSCAASRFTFSNYNMNWVRQAPGKGLEWISYISSSSSTIYYADSVKGRFTISRDNAKNSLSLQMNSLRDEDTAVYYCASLGRGYWGQGTLVTVSS
VL: not shown
B2: VY001 (antibody, V domains shown)
VH: B1 VH with R26G, N31S, S56N, I70V, S80Y, S98T, T111I, V112A
VL: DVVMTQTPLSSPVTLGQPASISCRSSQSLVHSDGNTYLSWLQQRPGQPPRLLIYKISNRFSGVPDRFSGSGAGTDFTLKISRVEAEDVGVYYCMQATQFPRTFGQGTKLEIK
B3: VY006 (antibody, V domains shown)
VH: EVQLVESGGGLVQPGGSLRLSCAASGFTFSSYTMNWVRQAPGKGLEWVSYISSSSSTIYYADSVKGRFTISRDNAKNSLYLQMNSLRDEDTAVYYCASLGRGDCWGQGTLVTVSS
VL: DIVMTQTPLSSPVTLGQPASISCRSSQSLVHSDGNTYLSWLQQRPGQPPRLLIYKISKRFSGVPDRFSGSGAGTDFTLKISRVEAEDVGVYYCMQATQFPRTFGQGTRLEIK
B4: VY005 (antibody, V domains shown)
VH: B3 VH with T33S, V48I, S55N, Y59K, S98R, L99R, G100S, R101L, C104Y, T112I
VL: DIQLTQSPSFLSASVGDRVTITCRASQGISCSLAWYQQKPGKAPKLLIYAASTLQSGVPSRFSGSGSGTEFTLTISSLQPEDFATYYCQQFNSYPFTFGPGTKVDIK
B5: VY004 (antibody, V domains shown)
VH: EVQLVESGGGLVQAGGSLRLSCAASGFTFSDYSMNWVRQAPGKGLEWVSYIRSSSSIIYYADSVKGRFTISRDNAKNSLHLQMNSLRDEDTAVYYCARRGHFDYWGQGTLVTVSS
VL: EIVLTQSPATLSLSPGERATLSCRASQSVSDYLAWYQQKPGQAPRLFIYDVSKRATGIPARFSGSGSGTDFTLTISSLEPEDFAVYYCQQRSNWPLTFGGGTKVEIK
B6: VY009 (antibody, V domains shown)
VH: QITLKESGPTLVKPTQTLTLTCTLSGFSLSTSEVGVGWIRQPPGKALEWLAIIYWNDHKRYSPSLKNRLTFTKDTSKNQVVLTMTNMDPVDTATYYCARRVTGEGFDPWGQGTLVTVSS
VL: SYELTQPPSVSVSPGQTARITCSGDALPKQYAYWYQQKPGQAPVLVIFKDTERPSGIPERFSGSSSGTTVTLTISGVQAEDEADYYCQSADSSGSYVFGTGTKVTVL
B7: VY019 (antibody, V domains shown)
VH: QVQLQESGPGLVKPSETLSLTCTVSGGSISSYYWTWIRQPAGKGLEWIGRIDTSGSTNYNPSLKSRVTMSIDTSKKQFSLKLSSVTAADTAVYYCARGGDGYRYWGQGTLVTVSS
VL: B6 VL with Y33C, F48Y, T51S, S75T, A90T, Y96W, T100G, V104L
B8: VY012 (antibody, V domains shown)
VH: EVQLLESGGGLVQPGGSLRLSCAASGFTYSSYAMSWVRRAPGKGLEWISIISGSSSITYYADSMKGRFTISRDNSKNTLFLQMNSLRAEDTAVYYCAKGGRYGYFQHWGQGTLVTVSS
VL: SYVLTQPPSVSVAPGQTARITCGGNNIGSKSVHWYQQKPGQAPVLVVYDDSDRPSGIPERFSGSNSGNTATLTISRVEAGDEADYYCQVWDSSSDPVVFGGGTMLTVL
B9: VY016 (antibody, V domains shown)
VH: EVQLVESGGGLVQPGGSLRLSCAASGFTFSSYSMNWVRQAPGKGLEWVSYISRSGSTIYYADSVEGRFTISRDNAYNSLYLQMISLRDDDTAVYYCARGNWAYWGQGILVTVSS
VL: QSVLTQPPSVSGAPGQRVTISCTGSSSNIGAGYDVHWYQQLPGTAPKLLIYGNSNRPSGVPDRFSGSKSGTSASLAITGLQAEDETDFYCQSYDSSLSGSVFGGGTKLTVL
B10: VY013 (antibody, V domains shown)
VH: QVTLKESGPVLVKPTETLTLTCTVSGFSLINARMAVSWIRQPPGKALEWLAHIFSNDEKSYSTSLKSRLTISKDTSKSQVVLIMTNMDPVDTATYYCARIRGYSYNYGMDVWGQGTTVTVSS
VL: DIVMTQSPLSLPVIPGEPASISCRSSQSLLHSNGYIYLDWYLQKPGQSPQLLIYVGSNRASGVPDRFSGSGSGTDFKLKISRVEAEDVGVYYCMQTLQIPRTFGGGTKVEIK
B11: VY017 (antibody, V domains shown)
VH: B5 VH with A14P, D31S, I57T, N77K, H80Y, G100S, H101I, F102A
VL: EIVLTQSPATLSSSPGERATLSCRASQSVTSYLNWYQQKPGQAPRLLIYDASNRATGIPARFSGSGSGTDFTLTISSLEPEDFALYYCQQRSNWPYTFGQGTKLEIK
B12: VY018 (antibody, V domains shown)
VH: QVQLQESGPGLVKPSETLSLTCTVSGGSISNYYWSWIRQPAGKGLEWIGRIYTSGDTYYNPSLQSRVTMSVDTSKNQFSLKLSAVTAADTAVYYCARAGIVGTPGLGMDVWGQGTTVTVSS
VL: SYELTQPPSVSVSPGQTARITCSGEALPKQYAYWYQQKPGQAPVLVIYKDSERPSGIPERFSGSSSGTTVTLTISGVQAEDEADYYCQSADSSGTYRVFGGGTKLTVL

T8 sequence (P10636 other isoform, or with tags, fused parts or gaps limits assumed): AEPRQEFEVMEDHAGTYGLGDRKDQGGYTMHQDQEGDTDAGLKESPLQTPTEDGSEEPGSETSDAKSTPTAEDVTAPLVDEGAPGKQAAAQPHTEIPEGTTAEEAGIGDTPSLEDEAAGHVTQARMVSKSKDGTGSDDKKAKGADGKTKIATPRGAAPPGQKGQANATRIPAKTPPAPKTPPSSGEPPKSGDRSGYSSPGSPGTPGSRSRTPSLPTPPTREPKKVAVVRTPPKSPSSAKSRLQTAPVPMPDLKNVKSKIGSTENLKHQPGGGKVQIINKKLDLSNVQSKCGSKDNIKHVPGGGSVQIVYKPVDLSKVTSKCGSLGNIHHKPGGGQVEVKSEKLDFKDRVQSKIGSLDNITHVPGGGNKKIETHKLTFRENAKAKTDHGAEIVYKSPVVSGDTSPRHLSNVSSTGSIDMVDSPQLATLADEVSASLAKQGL
T5 sequence (peptide, as listed by the source): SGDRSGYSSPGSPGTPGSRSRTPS

One test has as its target T5, Tau191-214 phospho-peptide (pS199) (human, phosphoserine at S199 of tau (peptide position 9); SCBio-4PEG label).
T5 construct: also called pS199 peptide
Briefly: one point ELISA. An excerpt:
(§1) One-point ELISA was used to determine differential binding based on the individual phosphorylation patterns of each peptide. OD values (450 nm) were collected (as shown in Table 13), where a stronger positive signal is shown as a higher OD value, which is indicative of increased binding.
Background: In an ELISA, binding on a coated surface is turned into a signal by an enzyme label.
B1: the “OD (450 nm)” value was 0.057 OD450.

Turning to B2, the “OD (450 nm)” value turned out to be 0.059 OD450.

In the case of B3, the “OD (450 nm)” value is 0.054 OD450.

Another test has as its target T6, pS199-old (SCBio-4PEG-Peptide, Tau191-214) (human, phosphoserine at S199 of tau by the row label; SCBio-4PEG label).
T6 construct: The suffix -old is not explained
In words: one point ELISA.
Text: as §1
Regarding B1, the “OD (450 nm)” value was found to be 0.057 OD450.

As to B2, the “OD (450 nm)” value came out at 0.059 OD450.

B3: the “OD (450 nm)” value was found to be 0.063 OD450.

The next test concerns the target T1, AC04 peptide. In words: one point ELISA.
Text: as §1
On to B4, for which the “OD (450 nm)” value amounted to 2.83 OD450.

B5: the “OD (450 nm)” value stood at 2.85 OD450.

For the next test, the target named is T2, wtTau C2. In words: one point ELISA.
Text: as §1
Turning to B4, the “OD (450 nm)” value was 0.153 OD450.

For B5, the “OD (450 nm)” value came out at 0.169 OD450.

The target in a further test is T3, tPeptide 5 (204-222). In words: one point ELISA.
Text: as §1
B4: the “OD (450 nm)” value stood at 0.288 OD450.

As for B5, the “OD (450 nm)” value turned out to be 0.382 OD450.

For another test, the target named is T7, iPHF (UniProt P10636-8 2-441, limits assumed).
T7 construct: also called iPHF tau
T7 sequence (P10636 other isoform, or with tags, fused parts or gaps limits assumed): as the sequence (P10636 other isoform, or with tags, fused parts or gaps limits assumed) above
In words: SPR (Biacore 8K). (SPR reads the build-up and loss of mass on a sensor chip optically.)
Usually Kd stands for the constant that tells how readily two partners part at equilibrium. Read a high Kd as a looser complex. B1 displayed a Kd of 596 pM.

In turn, B2 gave a dissociation constant (Kd) of 293 pM.

In turn, B3 returned a Kd of 356 pM.

Regarding B5, binding was put at a Kd of 11600 pM.

The next test concerns the target T8, enriched paired helical filament tau protein (ePHF; sarkosyl insoluble tau) (human, UniProt P10636 2-758). In words: cell-based or functional assay.
In the case of B1, the “Average IC50 (nM) for inhibiting tau aggregation after immunodepletion of ePHF (tau RD Biosensor cells)” value stood at 36.3 nM.

Turning to B2, the “Average IC50 (nM) for inhibiting tau aggregation after immunodepletion of ePHF (tau RD Biosensor cells)” value stood at 12.5 nM.

As for B3, the “Average IC50 (nM) for inhibiting tau aggregation after immunodepletion of ePHF (tau RD Biosensor cells)” value turned out to be 8.3 nM.

On to B5, for which the “Average IC50 (nM) for inhibiting tau aggregation after immunodepletion of ePHF (tau RD Biosensor cells)” value amounted to 9.39 nM.

For the next test, the target named is T8, enriched paired helical filament tau …. Briefly: direct ELISA, ePHF coated. The procedure:
(§2) A set of recombinant human IgG1 antibodies were prepared with clone-specific variable domain pairs selected from those presented in Table 1 and human IgG1 constant domains. These candidate antibodies were analyzed for binding to ePHF and specificity for ePHF over wild type tau by direct ELISA.
(§3) For direct ePHF and wildtype tau ELISA, plates were first coated with ePHF or wild type tau. Antigen solutions were prepared in PBS and 50 μL were pipetted into each well. Plates were covered and incubated for one hour at 37° C. or overnight at 4° C. Plates were then washed and blocked by addition of 150 μl of blocking buffer to each well and incubated one hour at room temperature. Plates were then washed before addition of serially diluted candidate antibody samples prepared in blocking buffer. Detection of candidate antibody binding was carried out by washing plates and adding a solution of enzyme-labeled secondary antibody in blocking buffer to each well. Secondary antibody binding was detected by addition of substrate and spectrophotometric analysis of resulting reaction product.
As a reminder, the EC50 is the concentration that produces a half-maximal response. Read a low EC50 as greater potency. Consider B6, for which the EC50 was 1740 pM.

As to B7, the binding result is on record as “no binding”.

Molecule B1 displayed an EC50 of 180 pM.

On to B2, for which a half-maximal effect (EC50) was put at 20 pM.

Molecule B3 came in with an EC50 of 110 pM.

In turn, B4 displayed an EC50 of 70 pM.

B8 yielded an EC50 of 40 pM.

Consider B5, for which the midpoint of the response, the EC50, lay at 70 pM.

Regarding B9, the binding result was “no binding”.

Regarding B10, the EC50 was 60 pM.

A further test deals with T9, wild type tau (human, UniProt P10636 2-758).
T9 construct: also called WT
T9 sequence (P10636 other isoform, or with tags, fused parts or gaps limits assumed): as above
Briefly: direct ELISA, wild type tau coated. As for the experimental part:
as §2, §3
With B7, the binding result is “no binding”.

B8 showed an EC50 of 10 pM.

On to B9, for which the binding result was “no binding”.

B10 had an EC50 of 980 pM.

The target in another test is T4, AT8 peptide (amino acids 195-215 of tau). In words: BLI (Octet), phospho-peptide on streptavidin tips. The procedure:
Briefly, phospho-peptides were immobilized on streptavidin biosensor tips and the binding ability of each antibody was assessed using an eight-point concentration gradient.
Molecule B1 had an equilibrium dissociation constant (Kd) of 18.2 pM.

On to B2, for which binding was put at a Kd of 4.35 pM.

For B3, the Kd was 3.82 pM.

A further test has as its target T7, iPHF. Briefly: BLI (Octet), antibody on biosensor tip, iPHF in solution. The procedure: Anti-human tau antibodies were assessed for affinity for iPHF by Octet (ForteBio, Menlo Park, CA) analysis. A set of recombinant human IgG1 antibodies were prepared with clone-specific variable domain pairs selected from those presented in Table 1 and human IgG1 constant domains. Candidate antibodies were immobilized on biosensor tips (ForteBio) in kinetic buffer (ForteBio). Biosensor tips were then washed before introduction of a solution of iPHF in kinetic buffer for analysis of association and dissociation with candidate antibodies.
In the case of B6, the affinity, expressed as Kd, was 1100 pM.

Consider B1, for which binding was characterised by a dissociation constant (Kd) of 600 pM.

As to B2, binding was characterised by a dissociation constant (Kd) of 7700 pM.

Molecule B3 yielded a Kd of 1500 pM.

B4 gave a Kd of 1000 pM.

In the case of B8, the Kd is 5100 pM.

For B5, binding was put at a Kd of 3700 pM.

For the molecule B11, the affinity, expressed as Kd, was 3700 pM.

Molecule B10 registered a Kd of 2900 pM.

As for B12, binding was put at a Kd of 3000 pM.

The next test deals with T8, enriched paired helical filament tau …. Briefly: follow up selectivity analysis, ePHF over wild-type tau; method not stated.
For B1, the “selectivity ePHF:WT” value was above 23 fold.

For B2, the “selectivity ePHF:WT” value was above 181 fold.

On to B3, for which the “selectivity ePHF:WT” value is above 40 fold.

Regarding B5, the “selectivity ePHF:WT” value is above 59 fold.

A further test deals with T7, iPHF. Briefly: follow up selectivity analysis, iPHF over wild-type tau; method not stated.
In the case of B1, the “selectivity iPHF:WT” value is above 109 fold.

With B2, the “selectivity iPHF:WT” value is above 30 fold.

B3: the “selectivity iPHF:WT” value was above 145 fold.

With B5, the “selectivity iPHF:WT” value was above 382 fold.

As for B12, the “selectivity iPHF:WT” value was above 73 fold.
